From PMC3861084 (Molecular Biology of the Cell, 2013)

Target: T1, pY14–Cav-1–mRFP (Cav-1–monomeric red fluorescent protein phosphorylated at Tyr-14) (canine, UniProt P33724 1-178, phosphotyrosine at 14)
T1 sequence (looked up): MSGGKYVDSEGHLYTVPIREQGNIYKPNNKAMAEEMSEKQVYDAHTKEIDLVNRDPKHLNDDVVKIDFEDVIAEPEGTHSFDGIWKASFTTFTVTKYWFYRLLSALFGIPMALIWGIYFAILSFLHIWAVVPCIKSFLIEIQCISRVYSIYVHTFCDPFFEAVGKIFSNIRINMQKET
Assay: far-Western

B1: GST fused to the Src SH2 domain (domain or fragment, chicken, UniProt P00523 148-251, looked up)
chain: WYFGKITRRESERLLLNPENPRGTFLVRESETTKGAYCLSVSDFDNAKGLNVKHYKIRKLDSGGFYITSRTQFSSLQQLVAYYSKHADGLCHRLTNVCPTSKPQ
binding result: binds
